Blank lines part the entries; values can stand above or below the molecule they belong to.
How the values were obtained:
[1] = molecular target: FILIP1 (filamin A-interacting protein 1), carboxy-terminus (CT) carboxy-terminus (CT) (UniProt Q7Z7B0); experiment: anti-Myc co-immunoprecipitation, quantitative immunoblot; conditions: reference: wild type; sites S2233,S2236
[2] = molecular target: FILIP1 (filamin A-interacting protein 1), carboxy-terminus (CT) carboxy-terminus (CT) (UniProt Q7Z7B0); experiment: co-immunoprecipitation, quantitative immunoblot; conditions: reference: wild type; sites S2233,S2236
[3] = molecular target: T1, FILIP1 CT-GFP (expressed in HEK293 cells) (UniProt Q7Z7B0-2 776-1177); experiment: fluorescence correlation spectroscopy (competition); recombinant FLNc d19–21 (44,000 to 21 nM) or its DD mutant (60,000 to 78 nM) titrated to HEK293T lysate with FILIP1 CT-GFP bound to Myc-hFLNc d18–21 DD; PBS pH 7.4, 0.05% Tween-20, 20 °C; conditions: one partner purified
T1 construct: FILIP1 carboxy-terminus (CT); also called FILIP1-GFP CT; wild-type FILIP1 CT-GFP; source: HEK293 (HEK293T), transfected, in lysate
T1 sequence (looked up): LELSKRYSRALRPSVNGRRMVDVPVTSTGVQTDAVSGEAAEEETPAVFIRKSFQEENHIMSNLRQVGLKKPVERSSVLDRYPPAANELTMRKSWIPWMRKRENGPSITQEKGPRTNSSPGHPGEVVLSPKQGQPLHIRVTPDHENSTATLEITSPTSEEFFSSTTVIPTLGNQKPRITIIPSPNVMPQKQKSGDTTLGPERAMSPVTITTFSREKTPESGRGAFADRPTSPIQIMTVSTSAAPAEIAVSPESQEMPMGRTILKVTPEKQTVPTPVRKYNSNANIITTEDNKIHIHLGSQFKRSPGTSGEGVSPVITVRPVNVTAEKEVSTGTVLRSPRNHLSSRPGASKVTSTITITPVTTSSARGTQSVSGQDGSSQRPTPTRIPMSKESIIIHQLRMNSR

binding against the reference [1]: stronger
binding against the reference [2]: stronger
Molecule: human filamin-C (hFLNc) Ig-like domains 18-21 (d18–21) (from UniProt Q14315) AA (S2233A/S2236A)

Kd [3]: 1170 nM
B1: recombinant hFLNc d19–21, wild type (domain or fragment, human, UniProt Q14315 2036-2410, looked up)
chain: SEIGDASKVRVWGKGLSEGHTFQVAEFIVDTRNAGYGGLGLSIEGPSKVDINCEDMEDGTCKVTYCPTEPGTYIINIKFADKHVPGSPFTVKVTGEGRMKESITRRRQAPSIATIGSTCDLNLKIPGNWFQMVSAQERLTRTFTRSSHTYTRTERTEISKTRGGETKREVRVEESTQVGGDPFPAVFGDFLGRERLGSFGSITRQQEGEASSQDMTAQVTSPSGKVEAAEIVEGEDSAYSVRFVPQEMGPHTVAVKYRGQHVPGSPFQFTVGPLGEGGAHKVRAGGTGLERGVAGVPAEFSIWTREAGAGGLSIAVEGPSKAEIAFEDRKDGSCGVSYVVQEPGDYEVSIKFNDEHIPDSPFVVPVASLSDDARR
notes: human filamin-C, Ig-like domains 19–21; also called wildtype hFLNc d19–21; non-phosphorylated hFLNc d19–21
